The target of the experiment is base subcomplex, heterologously expressed in E. coli (S. cerevisiae) (UniProt P38764).

This is an account of results in PMC4560640.

The substance “Ubp6, wild type (from UniProt P43593 1-499) (enzyme)” returned a Ub-AMC cleavage activity of Ubp6 with purified base against Ubp6 alone of 300 fold.
